Patent US20210079102A1 (DRAGONFLY THERAPEUTICS, published 2021)
Blank lines part the entries; values can stand above or below the binder they belong to.

Assays:
[1] = target: T1, murine NKG2D overexpressed on EL4 cells (EL4-mNKG2D) (mouse, UniProt O54709 1-232); test: flow cytometry on EL4-mNKG2D cells, 60 ug/mL with four-fold dilutions, goat anti-mouse PE secondary
T1 construct: whole, on cells; also called EL4-mNKG2D cells
T1 sequence (looked up): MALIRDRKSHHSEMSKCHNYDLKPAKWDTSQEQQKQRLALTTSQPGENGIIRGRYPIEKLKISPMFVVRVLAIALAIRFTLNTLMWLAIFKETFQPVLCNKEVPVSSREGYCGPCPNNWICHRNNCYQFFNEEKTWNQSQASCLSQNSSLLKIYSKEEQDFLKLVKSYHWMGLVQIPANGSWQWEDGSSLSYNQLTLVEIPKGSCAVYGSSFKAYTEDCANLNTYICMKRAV
Method: (§1) 60 μg/mL of indicated antibodies with four-fold dilutions were added to 2×10⁵ B16F10 tumor cells (FIG. 58A) or EL4-mNKG2D cells (FIG. 58B). Binding was assessed using a goat anti-mouse PE secondary antibody followed by flow cytometric analysis.

[2] = target: T2, Tyrp-1 on B16F10 melanoma cells (UniProt P07147 25-537, limits assumed); test: flow cytometry on B16F10 tumor cells, 60 ug/mL with four-fold dilutions, goat anti-mouse PE secondary
T2 construct: whole, on cells; also called Tyrp-1-positive B16F10 melanoma cells
Method: as §1

[3] = target: T3, CD33 expressed on MV4-11 human AML cells (human, UniProt P20138 18-364); test: flow cytometry on MV4-11 cells, FOB of MFI
T3 construct: whole, on cells; also called cell-expressed CD33
T3 sequence (P20138 18-364): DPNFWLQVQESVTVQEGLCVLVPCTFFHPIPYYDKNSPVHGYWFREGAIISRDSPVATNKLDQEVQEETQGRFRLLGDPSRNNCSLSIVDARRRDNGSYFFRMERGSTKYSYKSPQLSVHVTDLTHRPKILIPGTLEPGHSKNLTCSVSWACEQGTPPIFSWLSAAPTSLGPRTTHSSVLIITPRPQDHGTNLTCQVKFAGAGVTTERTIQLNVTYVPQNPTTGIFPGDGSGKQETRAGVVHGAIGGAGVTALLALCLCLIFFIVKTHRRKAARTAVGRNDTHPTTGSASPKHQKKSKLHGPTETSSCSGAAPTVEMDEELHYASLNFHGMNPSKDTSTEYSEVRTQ
Method: Human AML cell line MV4-11 expressing CD33 was used to assay the binding of TriNKETs to the tumor associated antigen. TriNKETs and the parental anti-CD33 monoclonal antibody were incubated with the cells, and the binding was detected using fluorophore-conjugated anti-human IgG secondary antibodies. Cells were analyzed by flow cytometry, and fold-over-background (FOB) was calculated using the mean fluorescence intensity (MFI) from TriNKETs and the parental monoclonal anti-CD33 antibody normalized to secondary antibody controls.

[4] = target: T4, human NKG2D expressed on EL4 cells (human, UniProt P26718 1-216); test: flow cytometry on EL4 cells expressing human NKG2D, anti-human IgG secondary, FOB of MFI
T4 construct: whole, on cells; also called extracellular NKG2D expressed on EL4 cells; cell-expressed human NKG2D
T4 sequence (looked up): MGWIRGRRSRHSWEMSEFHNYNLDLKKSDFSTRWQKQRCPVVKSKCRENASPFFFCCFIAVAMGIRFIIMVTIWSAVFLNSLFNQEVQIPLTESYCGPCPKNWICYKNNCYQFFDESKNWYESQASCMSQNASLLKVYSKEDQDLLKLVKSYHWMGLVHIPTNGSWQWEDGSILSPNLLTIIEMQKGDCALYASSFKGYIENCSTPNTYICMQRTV
Method: EL4 mouse lymphoma cell lines were engineered to express human NKG2D. […] The binding of the multi-specific binding proteins to NKG2D was detected using fluorophore-conjugated anti-human IgG secondary antibodies. Cells were analyzed by flow cytometry, and fold-over-background (FOB) was calculated using the mean fluorescence intensity (MFI) of NKG2D-expressing cells compared to parental EL4 cells.

- binding result [1]: binds
- binding result [2]: binds
B1: mcFAE-C26.99 TriNKET (bispecific antibody, mouse IgG2c)
light 1: DIQMTQSPSTLSASVGDRVTITCRASQSISSWLAWYQQKPGKAPKLLIYKASSLESGVPSRFSGSGSGTEFTLTISSLQPDDFATYYCQQYGSFPITFGGGTKVEIKRADAAPTVSIFPPSSEQLTSGGASVVCFLNNFYPKDINVKWKIDGSERQNGVLNSWTDQDSKDSTYSMSSTLTLTKDEYERHNSYTCEATHKTSTSPIVKSFNRNEC
heavy 1: QVQLQQWGAGLLKPSETLSLTCAVYGGSFSGYYWSWIRQPPGKGLEWIGEIDHSGSTNYNPSLKSRVTISVDTSKNQFSLKLSSVTAADTAVYYCARARGPWSFDPWGQGTLVTVSSAKTTAPSVYPLAPVCGGTTGSSVTLGCLVKGYFPEPVTLTWNSGSLSSGVHTFPALLQSGLYTLSSSVTVTSNTWPSQTITCNVAHPASSTKVDKKIEPRVPITQNPCPPLKECPPCAAPDLLGGPSVFIFPPKIKDVLMISLSPMVTCVVVDVSEDDPDVQISWFVNNVEVHTAQTQTHREDYNSTLRVVSALPIQHQDWMSGKEFKCKVNNRALPSPIEKTISKPRGPVRAPQVYVLPPPAEEMTKKEFSLTCMIKGFLPAEIAVDWTSNGRTEQNYKNTATVLDSDGSYFMYSRLRVQKSTWERGSLFACSVVHEGLHNHLTTKTISRSLGK
light 2: DIQMSQSPASLSASVGETVTITCRASGNIYNYLAWYQQKQGKSPHLLVYDAKTLADGVPSRFSGSGSGTQYSLKISSLQTEDSGNYYCQHFWSLPFTFGSGTKLEIKRADAAPTVSIFPPSSEQLTSGGASVVCFLNNFYPKDINVKWKIDGSERQNGVLNSWTDQDSKDSTYSMSSTLTLTKDEYERHNSYTCEATHKTSTSPIVKSFNRNEC
heavy 2: EVQLQQSGAELVRPGALVKLSCKTSGFNIKDYFLHWVRQRPDQGLEWIGWINPDNGNTVYDPKFQGTASLTADTSSNTVYLQLSGLTSEDTAVYFCTRRDYTYEKAALDYWGQGASVIVSSAKTTAPSVYPLAPVCGGTTGSSVTLGCLVKGYFPEPVTLTWNSGSLSSGVHTFPALLQSGLYTLSSSVTVTSNTWPSQTITCNVAHPASSTKVDKKIEPRVPITQNPCPPLKECPPCAAPDLLGGPSVFIFPPKIKDVLMISLSPMVTCVVVDVSEDDPDVQISWFVNNVEVHTAQTQTHREDYNSTLRVVSALPIQHQDWMSGKEFKCKVNNRALPSPIEKTISKPRGPVRAPQVYVLPPPAEEMTKKEFSLTCMITGFLPAEIAVDWTSNGRTEQNYKNTATVLDSDGSYLMYSKLTVQKSTWERGSLFACSVVHEGLHNHLTTKTISRSLGK
notes: also called murine cFAE-C26.99 TriNKET; TA99 TriNKET (mcFAE-C26.99)

- binding result [3]: binds
- binding result [4]: binds
B2: CD33-TriNKET-C26 (ADI-28226 and a CD33-binding domain) (bispecific antibody, V domains shown)
VH 1: QVQLQQWGAGLLKPSETLSLTCAVYGGSFSGYYWSWIRQPPGKGLEWIGEIDHSGSTNYNPSLKSRVTISVDTSKNQFSLKLSSVTAADTAVYYCARARGPWSFDPWGQGTLVTVSS
VL 1: DIQMTQSPSTLSASVGDRVTITCRASQSISSWLAWYQQKPGKAPKLLIYKASSLESGVPSRFSGSGSGTEFTLTISSLQPDDFATYYCQQYGSFPITFGGGTKVEIK
VH 2: QVQLVQSGAEVKKPGASVKVSCKASGYTFTDYVVHWVRQAPGQGLEWMGYINPYNDGTKYNEKFKGRVTMTRDTSISTAYMELSRLRSDDTAVYYCARDYRYEVYGMDYWGQGTLVTVSS
VL 2: DIVLTQSPASLAVSPGQRATITCTASSSVNYIHWYQQKPGQPPKLLIYDTSKVASGVPARFSGSGSGTDFTLTINPVEANDTANYYCQQWRSYPLTFGQGTKLEIK
notes: also called C26-TriNKET-CD33

- binding result [3]: binds
B3: parental anti-CD33 monoclonal antibody (antibody, V domains shown)
VH: B2 VH 2
VL: B2 VL 2
notes: also called parental monoclonal anti-CD33 antibody; parental anti-CD33 antibody
